Laboratory results from publication PMC8822174, “Evidence for the Rapid and Divergent Evolution of Mycoplasmas: Structural and Phylogenetic Analysis of Enolases” (Frontiers in Molecular Biosciences, 2021).

Target: the molecule itself
Test: native gel or EMSA

Protein | stoichiometry N
Mycoplasma pneumoniae enolase (enzyme, also called Mp Eno; M. pneumoniae Eno) MSAQTGTDLFKIADLFAYQVFDSRGFPTVACVVKLASGHTGEAMVPSGASTGEKEAIELRDGDPKAYFGKGVSQAVQNVNQTIAPKLIGLNATDQAAIDALMIQLDGTPNKAKLGANAILAVSLAVAKAAASAQKTSLFKYLANQVMGLNKTEFILTVPMLNVINGGAHADNNIDFQEFMIMPLGANSMHQALKMASETFHALQKLLKQRGLNTNKGDEGGFAPNLKLAEEALDLMVEAIKAAGYQPGSDIAIALDVAASEFYDDTTKRYVFKKGIKAKILDEKEWSLTTAQMIAYLKKLTEQYPIISIEDGLSEHDWEGMETLTKTLGQHIQIVGDDLYCTNPAIAEKGVAHKATNSILIKLNQIGTLTETIKAINIAKDANWSQVISHRSGETEDTTIADLAVAACTGQIKTGSMSRSERIAKYNRLLQIELELGNNAKYLGWNTFKNIKPQKA | 2
Mycoplasma bovis enolase (enzyme, also called Mb Eno; M. bovis Eno) MPIIERIQAREILDSRGNPTVQVEVTTDYEITGVANVPSGASTGSREALELRDKGTKYEGNWFGGKGVMTAVDNVNEKIAPELIGMSVFDQRAIDKLMIELDGTATKSKLGANAILGVSLAVARAAATELGMPLYRYIGGANAHTLPLPMLNVLNGGEHASNTVDFQEFMIMPVGAKSLREALQMANKVFHNLAKLLKKAGYGTQVGDEGGFAPNCKSHEEVLDYLVEAIKVAGYTPATSGKNAIAIALDAACSELYDENSKKYTFKKLKQAIAEKRSGFEHLDNVKLEYTTDELIEYFGKLIDKYPIISIEDGLAESDWEGFAKMTAKFGSKVQIVGDDLTVTNPKLLEKAIEQKSMNAILIKLNQIGSLSETMDAINKAQKANMACVVSHRSGETEDTTIADLAVAFNTGQIKTGSMSRTDRIAKYNRLLVIEEELGEQSEFEGSKAFYNIK | 8
